The record followed here is patent publication US20160376333A1 (University of Washington, published 2016).

Assay [1] deals with T1, human Bcl-w a.a. 1-182 with C-terminal avi-6his tag (human, UniProt Q92843 1-182).
T1 construct: range 1-182; also called BCL2L2
T1 sequence: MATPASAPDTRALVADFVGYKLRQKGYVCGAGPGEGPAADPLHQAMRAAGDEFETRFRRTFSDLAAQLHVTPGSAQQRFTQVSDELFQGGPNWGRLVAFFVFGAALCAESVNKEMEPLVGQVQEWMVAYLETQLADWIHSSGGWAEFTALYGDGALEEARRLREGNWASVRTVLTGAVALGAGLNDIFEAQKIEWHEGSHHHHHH
Nature of the assay: initial BLI screening (column 'Binds target?').

In assay [2] the target is T2, human Bfl-1 a.a. 1-153 (C4S) with C-terminal avi-6his tag (human).
T2 construct: also called A1/Bfl-1
T2 chain: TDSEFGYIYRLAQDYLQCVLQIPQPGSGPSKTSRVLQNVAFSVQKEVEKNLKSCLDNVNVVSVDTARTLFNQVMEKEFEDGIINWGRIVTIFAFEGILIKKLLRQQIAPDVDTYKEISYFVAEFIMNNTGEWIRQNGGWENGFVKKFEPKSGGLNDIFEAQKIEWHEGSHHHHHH
As to the kind of experiment: yeast surface display titration (apparent KD).

The target of assay [3] is T3, human Mcl-1 a.a. 172-327 with C-terminal avi-6his tag (human).
T3 chain: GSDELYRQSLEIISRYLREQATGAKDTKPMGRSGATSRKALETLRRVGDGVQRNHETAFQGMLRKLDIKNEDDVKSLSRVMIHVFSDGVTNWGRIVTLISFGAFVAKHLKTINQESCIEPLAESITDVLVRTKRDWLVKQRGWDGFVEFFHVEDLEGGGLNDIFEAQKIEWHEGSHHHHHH
Nature of the assay: yeast surface display titration (apparent KD).

Assay [4] addresses T4, Epstein-Barr virus BHRF1 a.a. 1-161 with C-terminal avi-6his tag (Epstein-Barr virus).
T4 construct: also called EBV BHRF1; BHRF1-biotin
T4 chain: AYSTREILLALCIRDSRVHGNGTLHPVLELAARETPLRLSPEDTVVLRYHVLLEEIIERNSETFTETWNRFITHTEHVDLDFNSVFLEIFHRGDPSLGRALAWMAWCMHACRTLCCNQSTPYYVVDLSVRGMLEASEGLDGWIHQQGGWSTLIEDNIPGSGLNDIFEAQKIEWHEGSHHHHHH
As to the kind of experiment: effect of the mutation on specificity (KD(BHRF1)/KD(Mcl-1) ratio): change in binding energy for BHRF1 minus that for Mcl-1, relative to BbpD04; assay not named on the sheet.

Assay [5] addresses T2, human Bfl-1 a.a. 1-153 (C4S) with …. Nature of the assay: yeast surface display titration; apparent binding constant (mean ± SE, n = 3-6).
Assay [6] addresses T5, human Bcl-2 a.a. 1-207 with C-terminal avi-6his tag (human, UniProt P10415 2-207). The assay is described as above.
The target of assay [7] is T3, human Mcl-1 a.a. 172-327 with …. The description is as above.
Assay [8] addresses T6, human Bcl-XL a.a. 1-205 with C-terminal avi-6his tag (human, UniProt Q07817 2-206).
T6 construct: also called BCL2L1
Described as above.

Assay [9] addresses T1, human Bcl-w a.a. 1-182 with C-terminal …. The assay is described as above.
Assay [10] concerns the target T5, human Bcl-2 a.a. 1-207 with C-terminal …. Nature of the assay: yeast surface display titration (apparent KD).
For assay [11], the target named is T6, human Bcl-XL a.a. 1-205 with C-terminal …. Nature of the assay: yeast surface display titration (apparent KD).
For assay [12], the target named is T1, human Bcl-w a.a. 1-182 with C-terminal …. Nature of the assay: yeast surface display titration (apparent KD).
Assay [13] deals with T6, human Bcl-XL a.a. 1-205 with C-terminal …. As to the kind of experiment: ratio of the KD of the next tightest BCL2 protein to the KD of the target, BLI.
Assay [14] deals with T5, human Bcl-2 a.a. 1-207 with C-terminal …. Nature of the assay: BLI, biotinylated target on streptavidin sensor, range of analyte concentrations. In general terms: BLI is a label-free optical method that tracks binding on a fibre tip over time.
For assay [15], the target named is T6, human Bcl-XL a.a. 1-205 with C-terminal …. The description is as above.
Assay [16] concerns the target T1, human Bcl-w a.a. 1-182 with C-terminal …. The assay is described as above.
Assay [17] addresses T3, human Mcl-1 a.a. 172-327 with …. The description is as above.
Assay [18] has as its target T7, human Bcl-B a.a. 11-175 with C-terminal avi-6his tag (human).
T7 construct: also called BCL2L10
T7 chain: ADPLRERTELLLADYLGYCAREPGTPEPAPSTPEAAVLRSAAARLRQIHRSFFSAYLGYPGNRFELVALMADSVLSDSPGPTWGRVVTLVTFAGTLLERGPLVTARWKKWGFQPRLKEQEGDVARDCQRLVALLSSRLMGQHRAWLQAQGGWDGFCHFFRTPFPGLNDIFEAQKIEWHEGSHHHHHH
The description is as above.

In assay [19] the target is T5, human Bcl-2 a.a. 1-207 with C-terminal …. Nature of the assay: ratio of the KD of the next tightest BCL2 protein to the KD of the target, BLI.
Assay [20] deals with T1, human Bcl-w a.a. 1-182 with C-terminal …. The assay is described as above.
In assay [21] the target is T2, human Bfl-1 a.a. 1-153 (C4S) with …. As to the kind of experiment: BLI, biotinylated target on streptavidin sensor, range of analyte concentrations.

B1: W-CDP02 (designed binder)
chain: DPKKVLDKARDQALKRLEEMRKKLEESYKEARKKDLTQEERRKLEEKYAEAMKRAAEDIYNMIQQALKEAEKEKKAGQVNSQQLDKLREDLNNKLIAAALAAIGDAFNMAANLRT
On to B1, for which the binding result in assay [1] is “binds”.

B2: BbpD04.3 (designed binder)
chain: ADWKKVLDKAKDIAENRVRELKQKLEEFYKEAMKLDLTQEMRRKLMLRWIAAMLMAIGDIFNAIRQAKQEADKLKKAGLVNSQQLDELKRRLEELKEEASRKARDYGREFQLKLEY
As for B2, the results for the Kd in assay [2] and in assay [3] were 32 nM and 19 nM, respectively.

B3: E48R (designed binder)
designed protein: ADWKKVLDKAKDIAENRVREIKQKLEEFYKKAMKLDLTQEMRRKLMLRWIAAMLMAIGDIFNAIEQAKQEADKLKKAGQVNSQLLDELKRRLEELKEEASRKCHDYGREFQLKLEY
Turning to B3, the “[..] ΔΔG BHRF1 - ΔΔG Mcl-1” value in assay [4] was -0.762 kcal/mol.

B4: BbpD04.2 C103V (designed binder)
designed protein: ADWKKVLDKAKDIAENRVRELKQKLEEFYKEAMKLDLTQEMRRKLMLRWIAAMLMAIGDIFNAIRQAKQEADKLKKAGLVNSQQLDELKRRLEELKEEASRKVRDYGREFQLKLEY
As to B4, the Kd was found to be 19 nM in [5]; 12.6 nM in assay [6]; 2.3 nM in [7]; 20 nM in assay [8]; 9.6 nM in assay [9].

B5: BbpD04.1 (designed binder)
chain: ADWKKVLDKAKDIAENRVREIKQKLEEFYKEAMKLDLTQEMRRKLMLRWIAAMLMAIGDIFNAIRQAKQEADKLKKAGQVNSQLLDELKRRLEELKEEASRKCHDYGREFQLKLEY
As for B5, the Kd in [10] came out at 110 nM; in [3], 30 nM; in assay [11], 25 nM; in assay [12] it was 14 nM.

B6: XINDI (designed binder)
chain: ADPKKVLDKAKDRAENVVRKLKKELEELYKEARKLDLTQEMRDRIRRTAIAARFQAHGDIFHAIKHAKEEARKLKKAGLVNSQQLDELKRRLRELDEEAEQRAEKLGKEFRLKLEY
notes: also called X-ECM04; αBCLXL
For B6, in assay [13], the Specificity amounted to 660 fold. Moreover, the Kd in [14] is 3700 nM; in assay [15], 5.59 nM; in [16], 40000 nM.

B7: X-CDP07 (designed binder)
chain: ADPKKVLDKAKDRAENVVRKLKKELEELYKEARKLDLTQEMRDRIRLAAIAARIAAFGDIFHAIMEALEEARKLKKAGLVNSQQLDELKRRLEELDEEAAQRAEKLGKEFELKLEY
Take B7: the Specificity in [13] came to 6.46 fold. Moreover, the Kd in [14] turned out to be 3.81 nM; in [17], 174 nM; in [18], 107 nM; in assay [16] it was 14.9 nM. The “apparent Kd (pooled screen)” value in assay [15] came out at 0.59 nM.

B8: W-CDP01 (designed binder)
chain: DPKKVFDKAKDKAENQVRYLKQRLEELYKEARKKDLTQEQRRKLKEKYLAAKLAAILAAIGDAFNALAEARELHKQGKVNKQQLDELAKRLDRLAEEAIQKAEDYAREFAYKLEY
B8: in assay [1], the binding result is recorded as “binds”.

B9: 2-INDI (designed binder)
chain: ADPKKVLDKAKDEAENRVRELKQRLEELYKEARKLDLTQEMRQELVDKARAASLQANGDIFYAILRALAEAEKLKKAGLVNSQQLDELKRRLEELAEEARRKAEKLRDEFRLKLEY
notes: also called αBCL2
Take B9: in [19], the Specificity was 2210 fold. In addition, the Kd stood at 0.839 nM in assay [14], 3500 nM in [15] and 1850 nM in assay [16].

B10: 2-CDP06 (designed binder)
chain: ADPKKVLDKAKDEAENRVRELKQKLEELYKEARKLDLTQEMRQELVDKARAASLQASGDIFYAILRALAEAEKLKKAGLVNSQQLDELKRRLEELAEEARRKAEKLGDEFRLKLEY
As to B10, in assay [19], the Specificity stood at 190 fold. Besides, the “apparent Kd (pooled screen)” value in [14] stood at 8.9 nM. Further, the Kd was found to be 12000 nM in assay [15] and 1670 nM in assay [16].

B11: W-CDP03 (designed binder)
chain: DPKKVFDEAKDRAENNVRRLKQKLEELYKEARKKDLTQEEREKLKEKYKTAMAAAALAAIGDAFNALLKARKLHKNGQVNEQQLEELARRLQELAKEAFQKAKDYANEFEYKLEY
Consider B11, for which the Specificity in [20] turned out to be 0.9 fold. In addition, the Kd in assay [21] amounted to 400 nM; in assay [14] it was 18.8 nM; in [17], 55.3 nM; in assay [18], 400 nM; in assay [15], 7.43 nM. Also, the “apparent Kd (pooled screen)” value in [16] is 8 nM.

B12: WINDI (designed binder)
chain: DPKKVFDELKDRAENNVRRLKQKLEELYKEARKKDLTQEEREKLKTKYKTAMQLAALAAEGDIMNALLKARKLHKNGQVNEQQLEELARRLMELAKEAFQKAKDYANEFKYKLEY
notes: also called W-ECM01; αBCLW
As for B12, in [20], the Specificity amounted to 1590 fold. For the same molecule, the Kd in assay [14] stood at 5700 nM; in assay [15], 1610 nM; in [16] it was 1.01 nM.
